Experimental data taken from US20250340631A1.
pKd: −log10 of the molar value.

Columns and labels:
human CLDN18.2 (human) [1] = test: competition FACS on HEK293/hCLDN18.2 cells; competitor 10 nM biotinylated PR000400; isotype is the reference of the formula
human CLDN18.2 (human) [2] = test: competition FACS on HEK293/hCLDN18.2 cells; competitor 200 nM biotinylated PR004549; isotype is the reference of the formula
[3] = molecular target: Biotinylated murine CD3E&D (murine) (UniProt P22646); test: BLI (Octet), biotinylated CD3 on SA sensor, 1:1 global fit
Biotinylated murine CD3E&D (murine), sequence (P22646 22-108, chain 1 of 2): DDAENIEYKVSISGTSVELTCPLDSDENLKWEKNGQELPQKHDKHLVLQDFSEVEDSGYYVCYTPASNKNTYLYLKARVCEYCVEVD
Biotinylated murine CD3E&D (murine), sequence (P04235 22-105, chain 2 of 2, further chain): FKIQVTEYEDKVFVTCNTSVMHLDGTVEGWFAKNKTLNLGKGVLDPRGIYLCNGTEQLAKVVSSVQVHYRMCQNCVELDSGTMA

Row | Maximum inhibition rate (%) (human CLDN18.2 (human) [1]) | Maximum inhibition rate (%) (human CLDN18.2 (human) [2]) | pKd [3] | koff [3] | kon [3] | Substance
1 | 0% | 0% |  |  |  | Iso hIgG1 (CrownBio, C0001-4) (antibody)
2 |  |  | 9.77 | 0.000137 s⁻¹ | 803000 M⁻¹ s⁻¹ | anti-CD3e 48-2B (santa cruz biotechnology, SC-1174) (antibody)
